# Laboratory results from PMC3554691, “Systematic Functional Comparative Analysis of Four Single-Stranded DNA-Binding Proteins and Their Affection on Viral RNA Metabolism” (PLoS ONE, 2013).
# T1: SSB protein from Thermococcus kodakarensis KOD1 (KOD) (Thermococcus kodakarensis KOD1)
# T1 chain: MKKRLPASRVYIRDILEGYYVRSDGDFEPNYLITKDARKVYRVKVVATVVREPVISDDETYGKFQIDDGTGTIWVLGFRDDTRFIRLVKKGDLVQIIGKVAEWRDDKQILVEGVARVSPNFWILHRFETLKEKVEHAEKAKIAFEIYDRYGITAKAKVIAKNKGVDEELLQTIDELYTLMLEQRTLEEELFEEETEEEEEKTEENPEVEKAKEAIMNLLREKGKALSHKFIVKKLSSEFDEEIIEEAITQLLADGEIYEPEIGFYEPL
# B1: SSB protein from Thermus thermophilus HB8 (TTH) (natural protein, UniProt Q5SLP9 1-263, looked up)
# chain: MARGLNRVFLIGALATRPDMRYTPAGLAILDLTLAGQDLLLSDNGGEREVSWYHRVRLLGRQAEMWGDLLDQGQLVFVEGRLEYRQWEREGERRSELQIRADFLDPLDDRGKERAEDSRGQPRLRAALNQVFLMGNLTRDPELRYTPQGTAVARLGLAVNERRQGAEERTHFVEVQAWRDLAEWAAELRKGDGLFVIGRLVNDSWTSSSGERRFQTRVEALRLERPTRGPAQAGGSRSREVQTGGVDIDEGLEDFPPEEELPF
# notes: printed length 263 residues, monomer 29.8 kDa; also called TTH SSB protein; source: E. coli BL21 (DE3), purified (70°C heat treatment, Ni2+ Sepharose, dialysis); not shown: His6, N-terminal, kept
# B2: SSB protein from Thermococcus kodakarensis KOD1 (KOD) (natural protein)
# chain: T1 chain
# modifications: N-terminal His tag left out. The locus TK1959 (RPA41, the 41 kDa replication factor A subunit) is inferred from the printed 356 residues and 41.6 kDa; it is not printed in the paper. / N-terminal His
# Experiments:
# [1] = target: SSB protein from Sulfolobus Solfataricus P2 (SSOB) (Sulfolobus Solfataricus P2) (UniProt Q97W73); experiment: native gel or EMSA; 5 µg of ssob on non-denaturing gradient polyacrylamide gel, running buffer and gel at pH 7.4, poles reversed, Coomassie stained; self-association
# [2] = target: the molecule itself; experiment: native gel or EMSA; 5 µg of SSB protein on 3.5–5–12% non-denaturing gradient polyacrylamide gel with NativeMarker, Coomassie stained; self-association
# [3] = target: T1, SSB protein from Thermococcus …; experiment: as above; settings: both partners purified
molecule,measurement,setting,value
SSB protein from Sulfolobus Solfataricus P2 (SSOB) (from UniProt Q97W73 1-148) (natural protein),stoichiometry N,[1],4
B1,stoichiometry N,[2],2
B2,stoichiometry N,[3],2
